Experimental data taken from patent US20260250651, “CAS12 PROTEINS AND USES THEREOF” (GUANGZHOU REFORGENE MEDICINE CO., LTD., published 2026).
Substitutions are numbered along the chain they refer to.

T1: Cas12i-69 (N295R,N260R,G705R)
T1 chain: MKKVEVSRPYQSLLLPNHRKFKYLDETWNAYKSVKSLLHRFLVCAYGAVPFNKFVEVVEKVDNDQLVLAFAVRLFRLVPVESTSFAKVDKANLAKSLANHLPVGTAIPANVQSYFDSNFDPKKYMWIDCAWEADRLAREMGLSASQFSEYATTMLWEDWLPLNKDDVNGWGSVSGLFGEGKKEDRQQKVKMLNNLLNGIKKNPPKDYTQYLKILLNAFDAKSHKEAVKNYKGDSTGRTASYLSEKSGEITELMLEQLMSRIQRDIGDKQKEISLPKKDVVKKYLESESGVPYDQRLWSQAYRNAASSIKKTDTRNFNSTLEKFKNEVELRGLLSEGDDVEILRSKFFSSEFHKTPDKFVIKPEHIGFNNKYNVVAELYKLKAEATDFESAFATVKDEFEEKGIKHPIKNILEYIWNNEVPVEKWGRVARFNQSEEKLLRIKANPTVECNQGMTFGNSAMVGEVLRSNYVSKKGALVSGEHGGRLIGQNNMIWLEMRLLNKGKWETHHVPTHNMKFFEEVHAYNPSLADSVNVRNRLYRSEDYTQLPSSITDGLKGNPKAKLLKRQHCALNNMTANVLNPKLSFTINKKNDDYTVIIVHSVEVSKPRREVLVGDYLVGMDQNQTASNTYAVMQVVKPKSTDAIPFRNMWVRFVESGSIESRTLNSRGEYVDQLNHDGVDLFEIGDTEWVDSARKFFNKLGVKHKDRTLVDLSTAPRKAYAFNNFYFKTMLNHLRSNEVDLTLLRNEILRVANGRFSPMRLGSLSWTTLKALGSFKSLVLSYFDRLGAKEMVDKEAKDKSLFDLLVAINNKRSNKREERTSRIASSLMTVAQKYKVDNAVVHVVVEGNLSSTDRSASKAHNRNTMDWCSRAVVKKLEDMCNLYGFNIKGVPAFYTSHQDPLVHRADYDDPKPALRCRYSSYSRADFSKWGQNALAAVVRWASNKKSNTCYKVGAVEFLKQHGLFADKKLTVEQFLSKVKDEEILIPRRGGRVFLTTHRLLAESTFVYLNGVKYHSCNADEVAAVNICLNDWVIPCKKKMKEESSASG

T2: Cas12i-111 (N295R,N260R,G705R,L332R)
T2 chain: T1 chain with L332R

B1: gRNA-TTR ; TTR target (ssRNA ; dsDNA)
RNA: AGAGAAUGUGUGCAUAGUCACACCAGUAAGAUUUGGUGUCUAU
DNA 1: CAGTAAGATTTGGTGTCTAT
DNA 2: ATAGACACCAAATCTTACTG
B2: gRNA-HBG ; HBG target (ssRNA ; dsDNA)
RNA: AGAGAAUGUGUGCAUAGUCACACACAAGGCAAACUUGACCAAU
DNA 1: ACAAGGCAAACTTGACCAAT
DNA 2: ATTGGTCAAGTTTGCCTTGT
B3: gRNA-HBB ; HBB target (ssRNA ; dsDNA)
RNA: AGAGAAUGUGUGCAUAGUCACACUAUGCAGAAAUAUUGCUAUUGCCU
DNA 1: TATGCAGAAATATTGCTATTGCCT
DNA 2: AGGCAATAGCAATATTTCTGCATA

How the values were obtained:
Cas12i-69 = target: T1, Cas12i-69; experiment: cell_activity; 293T indels; editing >15%
Protocol: (§1) Plating: The 293T cell line was plated when the confluence reached 70-80%, and the number of cells seeded in a 24-well plate was 5*10\hat{ }5 cells/well.
(§2) Transfection: After 12-14 hours of plating, transfection was performed. 100 μl of Opti-MEM, 1.5 μl of PEI (Yisheng Bio, Polyethylenimine Linear (PEI) MW25000), 250 ng of the mutant clone plasmid from Example 2, and 250 ng of gRNA plasmid for targeting endogenous genes were added to each well of a 24-well plate. The mixture was incubated at room temperature for 20 minutes and then added to 293T cells for transfection. After transfection overnight, the medium was replaced with fresh medium and cultured for the next period.
(§3) DNA extraction, PCR amplification, and Sanger sequencing: After culturing for 72 hours, cells were washed with PBS, and then 100 μl of cell lysis buffer (Viagen, DirectPCR® Lysis Reagent (Cell)) was added for lysis to obtain a lysate containing genomic DNA. The genomic DNA was amplified in the region near the target sequence, and the PCR product was sent to a sequencing company for Sanger sequencing.

Cas12i-111 = target: T2, Cas12i-111; experiment: cell_activity; 293T indels
Protocol: as §1, §2, §3

| Binder | indel editing efficiency (Cas12i-69) | relative indel editing efficiency (Cas12i-111) | relative indel editing efficiency (Cas12i-69) |
| --- | --- | --- | --- |
| B1 | 4.68 fold of wild type | 3.91 fold of wild type |  |
| B2 |  | 1.53 fold of wild type |  |
| B3 |  | 1.01 fold of Cas12i-69 | 1.58 fold of Cas12i-30 |
